{
  "source": "patent US20240293499A1",
  "about": "(SUNNYBROOK RESEARCH INSTITUTE, published 2024)",
  "key": {"[1]": {"target": "T1, hVISTA-COMP-his, pentameric form comprising the extracellular IgV domain of human VISTA (human, UniProt Q9H7M9 33-194)", "T1 construct": "domain: extracellular IgV domain; not shown: his tag", "assay": "SPR (BIAcore T200), single-cycle kinetics; hVISTA-COMP-his captured on anti-His chip, mAb as analyte; 1:1 Langmuir fit", "protocol": "(§1) Binding kinetics of mAbs and Nbs to hVISTA and mVISTA were obtained by surface plasmon resonance (SPR) using a BIAcore T200 (Cytiva) and HBS running buffer (20 mM of HEPES pH 7.4, 150 mM NaCl, 0.005% Tween-20, 3.4 mM EDTA). Briefly, anti-histidine antibodies were immobilized on a CM5 chip (29149604; Cytiva) using the His capture kit (28995056; Cytiva) following manufacture's protocol. For mAbs, VISTA was captured by flowing […] of hVISTA-COMP-his or mVISTA-COMP-his at a flow rate of 30 μL/min. Sensorgrams were collected using single-cycle kinetics covering five mAb concentrations (1:2 serial dilutions). For Nbs, solutions of each nanobody ([…]) were flown over an anti-histidine-coated chip. Five concentrations (1:2 serial dilutions) of hVISTA-Fc (produced in house) were then injected at a flow rate of 30 μL/min. KD, Kₒₙ, and Koff were calculated by analyzing the sensorgrams with a 1:1 Langmuir binding model²³ after subtracting reference sensorgrams."}, "[2]": {"target": "T1, hVISTA-COMP-his, pentameric form …", "assay": "SPR (BIAcore T200), single-cycle kinetics, hVISTA-COMP-his captured on anti-His chip, mAb injected at 0.5, 1, 2, 4, 8 nM, 1:1 fit", "protocol": "as §1"}, "[3]": {"target": "T2, hVISTA-Fc (produced in house) (human, UniProt Q9H7M9 33-194, limits assumed)", "T2 construct": "Analyte in the SPR of the nanobodies; not shown: Fc", "T2 sequence (looked up)": "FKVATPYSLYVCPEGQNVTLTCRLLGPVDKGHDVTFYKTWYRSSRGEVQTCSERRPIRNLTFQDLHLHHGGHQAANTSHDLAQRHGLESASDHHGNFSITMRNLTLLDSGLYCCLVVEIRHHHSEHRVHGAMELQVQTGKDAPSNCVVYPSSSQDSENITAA", "assay": "SPR (BIAcore T200), single-cycle kinetics, Nb captured on anti-His chip, hVISTA-Fc injected at 1.9, 3.8, 7.5, 15, 30 nM, 1:1 fit", "protocol": "as §1"}, "[4]": {"target": "T2, hVISTA-Fc (produced in house)", "assay": "SPR (BIAcore T200), single-cycle kinetics; Nb captured on anti-His chip, hVISTA-Fc as analyte; 1:1 Langmuir fit", "protocol": "as §1"}, "[5]": {"target": "T1, hVISTA-COMP-his, pentameric form …", "assay": "SPR (BIAcore T200), single-cycle kinetics, hVISTA-COMP-his captured on anti-His chip, mAb injected at 20, 40, 80, 160, 320 nM, 1:1 fit", "protocol": "as §1"}, "[6]": {"target": "T3, mVISTA-COMP-his, pentameric form comprising the extracellular IgV domain of murine VISTA (mouse, UniProt Q9D659 33-191)", "T3 construct": "domain: extracellular IgV domain; Captured on an anti-histidine chip for SPR of the mAbs; also called recombinant mouse VISTA; not shown: his tag", "T3 sequence (Q9D659 whole entry, looked up)": "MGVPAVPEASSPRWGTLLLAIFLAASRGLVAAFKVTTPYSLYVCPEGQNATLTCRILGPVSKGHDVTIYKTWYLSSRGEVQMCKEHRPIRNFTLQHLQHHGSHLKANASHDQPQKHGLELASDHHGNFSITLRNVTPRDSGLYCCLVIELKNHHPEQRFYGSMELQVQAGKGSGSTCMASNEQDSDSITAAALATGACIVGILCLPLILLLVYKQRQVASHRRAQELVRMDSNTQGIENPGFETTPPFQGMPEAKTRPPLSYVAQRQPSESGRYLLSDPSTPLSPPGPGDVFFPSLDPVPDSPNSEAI", "assay": "SPR (BIAcore T200), single-cycle kinetics, mVISTA-COMP-his captured on anti-His chip, mAb injected at 20, 40, 80, 160, 320 nM, 1:1 fit", "protocol": "as §1"}, "[7]": {"target": "T3, mVISTA-COMP-his, pentameric form …", "assay": "SPR (BIAcore T200), single-cycle kinetics; mVISTA-COMP-his captured on anti-His chip, mAb as analyte; 1:1 Langmuir fit", "protocol": "as §1"}, "[8]": {"target": "T1, hVISTA-COMP-his, pentameric form …", "assay": "SPR (BIAcore T200), single-cycle kinetics, hVISTA-COMP-his captured on anti-His chip, mAb injected at 1, 2, 4, 8, 16 nM, 1:1 fit", "protocol": "as §1"}, "[9]": {"target": "T4, human VISTA on primary human immune cells (CD14+CD16- classical monocytes of PBMCs) (human, UniProt Q9H7M9 33-311)", "T4 construct": "whole, on cells; Native protein on donor cells; also called hVISTA", "T4 sequence (looked up)": "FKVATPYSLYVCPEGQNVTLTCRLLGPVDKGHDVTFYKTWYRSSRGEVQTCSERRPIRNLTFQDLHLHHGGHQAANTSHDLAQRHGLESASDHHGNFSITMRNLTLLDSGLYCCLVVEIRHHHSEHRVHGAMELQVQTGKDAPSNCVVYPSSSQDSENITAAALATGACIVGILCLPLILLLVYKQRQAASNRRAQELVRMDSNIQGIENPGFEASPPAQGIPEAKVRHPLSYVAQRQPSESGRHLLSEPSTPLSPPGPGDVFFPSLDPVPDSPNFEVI", "assay": "flow cytometry on human PBMC, gate CD14+CD16- monocytes, ΔMFI against isotype control, 5 donors", "protocol": "(§2) Binding of mAbs and Nbs to human and murine immune cells were tested using human PBMCs and mouse splenocytes. For binding on human cells, whole human blood was obtained from donors in accordance with guidelines set forth by the Sunnybrook Research Ethics board (REB approval number 443-2017). Human peripheral blood mononuclear cells (PMBCs) were isolated from whole blood using Ficoll Paque PLUS (1.077 g/ml) (17144003; Cytiva). PBMCs had their Fc receptors blocked with Human TruStain FcX (422301; BioLegend) then incubated with 2.5 μg of mAb, mouse IgG1 (401408; BioLegend), or rat IgG2a (400565; BioLegend) or 15 μg Nb for 1 hour at 4° C. After washing with PBS, the PBMCs were incubated with secondary antibodies (1 μL; FITC anti-mouse IgG1, FITC anti-HA, or FITC anti-rat IgG2a; 406605, 901507, or MRG2a-83; BioLegend) or control FITC anti-VISTA antibodies (clone B7H5DS8; 11-1088-42; eBioscience) for 40 minutes at 4° C. […] Finally, the PBMCs were washed and resuspended in 3 μM DAPI (D1306; Thermo Fisher Scientific) and cytometric profiles recorded using a BD LSR II flow cytometer (BD) maintained by The Centre for Flow Cytometry & Scanning Microscopy (CCSM) at Sunnybrook Research Institute (SRI; Sunnybrook Health Sciences Centre, Toronto, ON, Canada). […]"}, "[10]": {"target": "T1, hVISTA-COMP-his, pentameric form …", "assay": "SPR (BIAcore T200), single-cycle kinetics, hVISTA-COMP-his captured on anti-His chip, mAb injected at 2, 4, 8, 16, 32 nM, 1:1 fit", "protocol": "as §1"}, "[11]": {"target": "T4, human VISTA on primary human immune …", "assay": "flow cytometry on human PBMC, gate CD14+CD16- monocytes, ΔMFI against isotype control, 5 donors; representative histogram against mIgG", "protocol": "as §2"}},
  "data": [
    {"binder": "murine anti-hVISTA mAb 7E12 (antibody, V domains shown, Mouse IgG1 purified from hybridoma) VH: DVHLQESGPGLVKPSQSLSLTCSVTGYSITSGYYWNWIRQFPGNKLEWMGYISYDGNNNYNPSLKNRISITRDTSKNQFFLKLNSVTTEDTATYYCARGDYGSEAMDYWGQGTSVTVSS VL: DIRVTQSPASLAVSLGQRATISCRASKSVSTSGYSYMNWYQQKPGQPPQLLIYLASNLESGVPARFSGSGSGTDFTLNIHPVEEEDAAIYYCQHSRELPWTFGGGTKLEIK", "values": [
      {"measurement": "Kd", "setting": "[1]", "result": 0.44, "unit": "nM"},
      {"measurement": "Kd", "setting": "[2]", "result": 0.442, "unit": "nM"},
      {"measurement": "koff", "setting": "[2]", "result": 0.000123, "unit": "s⁻¹"},
      {"measurement": "kon", "setting": "[2]", "result": 279000, "unit": "M⁻¹ s⁻¹"}
    ]},
    {"binder": "anti-hVISTA nanobody hVISTANb1 (VHH, Llama nanobody made in E. coli WK6, purified by IMAC, detected with anti-HA) VHH: QVQLQESGGGLVQPGGSLRLSCAASGSVGTIFSMGWFRQAPGVQREMVATITNSGETNYAAFVKGRFTISRDNAENTVYLQMNSLKPEDTAAYYCNAFDYVGGRTYELPYWGQGTQVTVSS", "values": [
      {"measurement": "Kd", "setting": "[3]", "result": 10.8, "unit": "nM"},
      {"measurement": "koff", "setting": "[3]", "result": 0.00109, "unit": "s⁻¹"},
      {"measurement": "kon", "setting": "[3]", "result": 102000, "unit": "M⁻¹ s⁻¹"},
      {"measurement": "Kd", "setting": "[4]", "result": 11, "unit": "nM"}
    ]},
    {"binder": "rat anti-hmVISTA mAb 7C7 (antibody, V domains shown, Variable regions only; Rat IgG2a from hybridoma) VH: EVQLVESGGGLVQPGRSLKLSCVASGFTFNKYWMSWTRQAPGKGLEWVASITNSGGNTYYPDSVKGRFTISRDNAQNTLYLQMNSLRSEDTATYYCTLGVDYWGQGAMVTVSS VL: DVVMTQTPPSLSVTIGQSVSISCKSSQSLVYSDGKTYLHWLLQSSGRSPKRLIYQVSNLASGVPDRFSGTGSQKDFTLKISRVEAKDLGVYYCAQTTHFPYTFGAGTKLEMK", "values": [
      {"measurement": "Kd", "setting": "[1]", "result": 49, "unit": "nM"},
      {"measurement": "Kd", "setting": "[5]", "result": 49.4, "unit": "nM"},
      {"measurement": "koff", "setting": "[5]", "result": 2.2, "unit": "s⁻¹"},
      {"measurement": "kon", "setting": "[5]", "result": "4.45e+07", "unit": "M⁻¹ s⁻¹"},
      {"measurement": "Kd", "setting": "[6]", "result": 50.5, "unit": "nM"},
      {"measurement": "koff", "setting": "[6]", "result": 0.002, "unit": "s⁻¹"},
      {"measurement": "kon", "setting": "[6]", "result": 39600, "unit": "M⁻¹ s⁻¹"},
      {"measurement": "Kd", "setting": "[7]", "result": 51, "unit": "nM"}
    ]},
    {"binder": "murine anti-hVISTA mAb 7G5 (antibody, V domains shown, Variable regions only, although headed 'Heavy Chain' and 'Light Chain'; Mouse IgG1 from hybridoma) VH: QIQLVQSGPELKKPGETVKISCKASGYTFTNYGMNWVKQAPEKGLKWMGWINTYTGEPTYADDFKGRFAFSLETSASTAYLQINNLKNEDTATYFCARRSNPWPNDYWGQGTSLTVSS VL: DIQMTQSPSSFSASLGERVSLTCRASQEISGYLSWLQQKPDGTIKRLIYAASTLDSGVPKRFSGSRSGSDYSLTISSLESEDFADYYCLQYASYPWTFGGGTKLEIK", "values": [
      {"measurement": "Kd", "setting": "[1]", "result": 0.14, "unit": "nM"},
      {"measurement": "Kd", "setting": "[8]", "result": 0.136, "unit": "nM"},
      {"measurement": "binding result", "setting": "[9]", "result": "binds"}
    ]},
    {"binder": "murine anti-hVISTA mAb 8G10 (antibody, V domains shown, Variable regions only, although headed 'Heavy Chain' and 'Light Chain'; Mouse IgG1 from hybridoma) VH: QVQLQQSGAELVRPGASVTLSCKASGYTFTDYEMHWVKQTPVHGLEWIGAIDPETGGTAYNQKFKGKATLTADKSSSTAYMELRSLTSEDSAVYYCTRWSLRPYAMDYWGQGTSVTVSS VL: DVVMTHTPLSLPVSLGDQASISCRSSQSLVHNNGNTYLHWYLQKPGQSPKLLIYKVSNRFSGVPDRFSGSGSGTDFTLKISRVEAEDLGLYFCSQSTHVPWTFGGGTKLEIK", "values": [
      {"measurement": "Kd", "setting": "[10]", "result": 0.98, "unit": "nM"},
      {"measurement": "koff", "setting": "[10]", "result": 0.000111, "unit": "s⁻¹"},
      {"measurement": "kon", "setting": "[10]", "result": 113000, "unit": "M⁻¹ s⁻¹"},
      {"measurement": "Kd", "setting": "[1]", "result": 0.98, "unit": "nM"},
      {"measurement": "binding result", "setting": "[11]", "result": "binds"}
    ]}
  ]
}
